Tests used:
[1] = biological target: T1, SPRED1(EVH1), SPRED1(13–125), wild type (ITC), Q7Z699; assay: ITC; conditions: chain shown with the change
T1 chain: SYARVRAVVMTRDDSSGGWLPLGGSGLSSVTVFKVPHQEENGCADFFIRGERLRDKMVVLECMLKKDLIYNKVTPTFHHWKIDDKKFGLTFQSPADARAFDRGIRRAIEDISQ

[2] = biological target: T2, NF1(GRD), neurofibromin GAP-related domain, wild type (ITC), P21359-2; assay: ITC; conditions: chain shown with the change
T2 chain: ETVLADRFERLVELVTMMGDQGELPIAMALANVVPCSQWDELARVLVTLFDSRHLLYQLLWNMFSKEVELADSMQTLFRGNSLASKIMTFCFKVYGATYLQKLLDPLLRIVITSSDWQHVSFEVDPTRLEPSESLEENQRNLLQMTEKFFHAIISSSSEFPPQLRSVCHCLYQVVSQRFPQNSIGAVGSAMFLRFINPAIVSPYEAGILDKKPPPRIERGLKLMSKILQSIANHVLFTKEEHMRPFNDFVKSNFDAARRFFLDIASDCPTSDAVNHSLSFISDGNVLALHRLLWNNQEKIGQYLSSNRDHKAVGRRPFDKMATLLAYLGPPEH

[3] = biological target: NF1(GRD), neurofibromin GAP-related domain, wild type (ITC) (human) (UniProt P21359); assay: ITC; MicroCal PEAQ-ITC, 25°C, 19 injections of 2.2 μL; 20 mM HEPES (pH 7.3), 150 mM NaCl, 5 mM MgCl2, 1 mM TCEP; one set of sites model; protein in the cell not given
NF1(GRD) R1250A (human) = NF1(GRD) R1250A (human) (UniProt P21359); assay: as above
NF1(GRD) D1217A (human) = NF1(GRD) D1217A (human) (UniProt P21359); assay: as above

B1: NF1(GRD), neurofibromin GAP-related domain, wild type (ITC), P21359-2 D1217A (protein)
chain: ETVLADRFERLVELVTMMGAQGELPIAMALANVVPCSQWDELARVLVTLFDSRHLLYQLLWNMFSKEVELADSMQTLFRGNSLASKIMTFCFKVYGATYLQKLLDPLLRIVITSSDWQHVSFEVDPTRLEPSESLEENQRNLLQMTEKFFHAIISSSSEFPPQLRSVCHCLYQVVSQRFPQNSIGAVGSAMFLRFINPAIVSPYEAGILDKKPPPRIERGLKLMSKILQSIANHVLFTKEEHMRPFNDFVKSNFDAARRFFLDIASDCPTSDAVNHSLSFISDGNVLALHRLLWNNQEKIGQYLSSNRDHKAVGRRPFDKMATLLAYLGPPEH
- Kd [1]: 14 µM

B2: SPRED1(EVH1), SPRED1(13–125), wild type (ITC), Q7Z699 R24Q (protein)
chain: SYARVRAVVMTQDDSSGGWLPLGGSGLSSVTVFKVPHQEENGCADFFIRGERLRDKMVVLECMLKKDLIYNKVTPTFHHWKIDDKKFGLTFQSPADARAFDRGIRRAIEDISQ
- Kd [2]: 4 µM

B3: NF1(GRD), neurofibromin GAP-related domain, wild type (ITC), P21359-2 R1250A (protein)
chain: ETVLADRFERLVELVTMMGDQGELPIAMALANVVPCSQWDELARVLVTLFDSAHLLYQLLWNMFSKEVELADSMQTLFRGNSLASKIMTFCFKVYGATYLQKLLDPLLRIVITSSDWQHVSFEVDPTRLEPSESLEENQRNLLQMTEKFFHAIISSSSEFPPQLRSVCHCLYQVVSQRFPQNSIGAVGSAMFLRFINPAIVSPYEAGILDKKPPPRIERGLKLMSKILQSIANHVLFTKEEHMRPFNDFVKSNFDAARRFFLDIASDCPTSDAVNHSLSFISDGNVLALHRLLWNNQEKIGQYLSSNRDHKAVGRRPFDKMATLLAYLGPPEH
- Kd [1]: 1.08 µM

B4: SPRED1(EVH1), SPRED1(13–125), wild type (ITC), Q7Z699 G30R (protein)
chain: SYARVRAVVMTRDDSSGRWLPLGGSGLSSVTVFKVPHQEENGCADFFIRGERLRDKMVVLECMLKKDLIYNKVTPTFHHWKIDDKKFGLTFQSPADARAFDRGIRRAIEDISQ
- Kd [2]: 33.7 µM

B5: SPRED1(EVH1), SPRED1(13–125), wild type (ITC) (domain or fragment)
chain: SYARVRAVVMTRDDSSGGWLPLGGSGLSSVTVFKVPHQEENGCADFFIRGERLRDKMVVLECMLKKDLIYNKVTPTFHHWKIDDKKFGLTFQSPADARAFDRGIRRAIEDISQ
- Kd [3]: 0.224 µM
- fold reduced binding against wild-type NF1(GRD) (NF1(GRD) R1250A (human)): 5 fold
- fold weaker affinity than wild-type NF1(GRD) (NF1(GRD) D1217A (human)): > 50 fold

B6: SPRED1(13–125) R24Q (domain or fragment)
chain: SYARVRAVVMTQDDSSGGWLPLGGSGLSSVTVFKVPHQEENGCADFFIRGERLRDKMVVLECMLKKDLIYNKVTPTFHHWKIDDKKFGLTFQSPADARAFDRGIRRAIEDISQ
- fold weaker binding than wild-type SPRED1 [3]: 20 fold

B7: SPRED1(13–125) G30R (domain or fragment)
chain: SYARVRAVVMTRDDSSGRWLPLGGSGLSSVTVFKVPHQEENGCADFFIRGERLRDKMVVLECMLKKDLIYNKVTPTFHHWKIDDKKFGLTFQSPADARAFDRGIRRAIEDISQ
- fold weaker binding than wild-type SPRED1 (printed as decrease in KD) [3]: > 100 fold

B8: SPRED1(13–125) S105D, purified phosphomimetic (domain or fragment)
chain: SYARVRAVVMTRDDSSGGWLPLGGSGLSSVTVFKVPHQEENGCADFFIRGERLRDKMVVLECMLKKDLIYNKVTPTFHHWKIDDKKFGLTFQDPADARAFDRGIRRAIEDISQ
- fold weaker affinity than wild-type SPRED1 [3]: 10 fold
